Assay: soluble on expression in E. coli; label from the status in PepcDB or PDB records

Row | Sequence | soluble on expression in E. coli
1 | QYFTGGLSLEPSNQAGFSQSQSASNTAAQDENAQFVAAILGTTETVWNQLLQGQYVEPKLVLYRNMTSTGCGMGQAQSGPFYCPADGKVYIDLSFLEELKKLGASGDFAFAYVIAHEVGHHVQNLLGTSTKVRQAQQAAGKAQANQLSVALELQADCYAGVWGHYVDRQLNLLEPGDVEEGIAAASAVGDDRLQKMAGRAVQPEAFTHGSSADRVKWFNIGFASGKPASCNTF | not soluble
2 | MGTFATTYEKIQDFNWLTRFLHAGRYRKLLEVLETVQKDVGNRKVRILDIGCGPGTAVGHILERFDVEYVGIDYDPIFIDAARNRYGKNENCRFIVGDATDERLYETIQADIVIALETLEHIHLNRTVRVIEHVCTIIRPRIFLVTVPVEVGPAVWIKNWGSALMGYNRQSGNLKETFWAGLYRMDRVPAHHTSHQGFDWRCLAQLIRVNAPLREIRSLPFSFVPRLLSPNVALIAEPVKSTIDLANDDPEAWKINHGQTAFQRPHIVDETDAARHAKSLATWSMRLKGLLGMALATMPFAWHRWSYISISPGEAQSSHFLLTIDKHLLPPHQSIEGDTILLAAQAIVQRVSDASYLLT | not soluble
3 | MAHHHHHHMDPKEFVQRFPKSALSAKLVLSLEITEQRDFVVSLIDDAVYCDSWEAYFDFAERNNVAITEDVALAAVQAVGLDPLSAPLWVRAAACCESVESRKSLYEFGLSVPLHGWQRLFEEYRRCTDGHEDDHVLSETECWCVSNVLTAEKWPDRYAKLDTDTEAENVRQAWLELFACMLAGLASTAIARDLQLRRMELAMRQMCTQLPGDDSCWYQLALFQLCILEDAEAARKTVACGIAAAGSSFALENIASVADGVVGVSDSSGTSSADVLSATKALMQQRRAAEELALDGVTKDRVRALRSVGKAAAQQGLGDWKIFSQWRCAEDMAAHDTKMAAKVLENGMICCSHSPADALLLGSEAAQYHLLQRHEREALGYAEQQIEQQAELHHRGKILASWNSLVRIENLLGLSFSKAAKRRAELFPQNRISTFMENCRVGDYLPCDKSTFQWARFVEDYQVDKASVEETPFHGIAPPRNEAVAVKRLQQVECETPDDSQWEPFVPPLSCLPSREEENPDDVTGVRELRGKLVYRVKMDARTAARCQREKATRQRSMTGEKAVERGGALGALVRRVRPVNLTVGQTKRLQSVSADWVVHVLTVSELDLERTLKERAERQESHDMSV | not soluble
4 | KNYDLSDLPGPPSKPQVTDVTKNSVTLSWQPGTPGTLPASAYIIEAFSQSVSNSWQTVANHVKTTLYTVRGLRPNTIYLFMVRAINPQGLSDPSPMSDPVRTQD | soluble
5 | MNQLQAEINAANAVFPVSDSTKIPKVSQKLFGLLGDGFFPQLHPKGLKIADNIAALFDQYNLKSIALKNFDLNLERKNDIVIQGKVCYSFSIK | not soluble
6 | MLSKKLHDALNDQMNFEFYSAHAYMAMAAYCTAESYDGFANFFLVQAEEERFHAMKLYNYINDRGERAIITGFDNPNNEYESVLNAFEVALEHEREVTKRIYNLSDIAWDEREHATITFLKWFVDEQVEEEASFDSIIQKLKRITSDSNALFMLDAELEKRTFTPPAE | not soluble
7 | MWRRHYKLVPQIDTRDCGPAVLASVAKHYGSNYSIAYLRELSKTNKQGTTALGIVEAAKKLGFETRSIKADMTLFDYNDLTYPFIVHVIKGKRLQHYYVVYGSQNNQLIIGDPDPSVKVTRMSKERFQSEWTGLAIFLAPQPNYKPHKGEHHHHHH | soluble
8 | MDMKRRIHLELRNRTPAAVRELVLDNCKAMDGKIEGLTDEFVNLEFLSLISVGLFSVSDLPKLPKLKKLELSENRIFGGLDRLAEELPSLTHLNLSGNNLKDISTLEPLKRLDCLKSLDLFGCEVTNRSDYRETVFRLLPQLSYLDGYDREDQEAPDSDVEVDSVEEAPDSDGEVDGVDKEEEDEEGEDEEEEEDEDGEEEEDEDEEDEDEDEDVEGEDDEDEVSGEEEEFGHDGEVDEDEEDEDEDEDEEEEESGKGEKRKRETDDEGEDD | soluble
9 | MSVVDMSAEKMTKLEENLQRAVALKKTVDRWRNFHIHCMWQTTLDQRRNLFAALRMKDTKEQELALSNKQLLVVRQAALHELFEKEYQQYQQELNQMGKAFYEERL | not soluble
10 | SFYSGLLTEGGRKETDMREAASLRQQRRMKQAVQFIHKDSADLLPLDGLKKLGSSKDMQPHNILQRRLMETNLSKLRSGPRVPWASKTNKLNQAKSEGLKKSEEDDMILVSCQCAGKDVKALVDTGCLYNLISLACVDRLGLKEHVKSHKHEGEKLSLPRHLKVVGQIEHLVITLGSLRLDCPAAVVDDNEKNLSLGLQTLRSLKCIINLDKHRLIMGKTDKEEIPFVETVSLNEDNTSEA | soluble
11 | MGHHHHHHSHMKMGYEEVSQKFTSIRRVRGDNYCALRATLFQAMSQAVGLPPWLQDPELMLLPEKLISKYNWIKQWKLGLKFDGKNEDLVDKIKESLTLLRKKWAGLAEMRTAEARQIACDELFTNEAEEYSLYEAVKFLMLNRAIELYNDKEKGKEVPFFSVLLFARDTSNDPGQLLRNHLNQVGHTGGLEQVEMFLLAYAVRHTIQVYRLSKYNTEEFITVYPTDPPKDWPVVTLIAEDDRHYNIPVRVCEETSL | soluble
12 | MTTKNTLQPTEAAYIAGFLDGDGSIYAKLIPRPDYKDIKYQVSLAISFIQRKDKFPYLQDIYDQLGKRGNLRKDRGDGIADYTIIGSTHLSIILPDLVPYLRIKKKQANRILHIINLYPQAQKNPSKFLDLVKIVDDVQNLNKRADELKSTNYDRLLEEFLKAGKIESSPTGSGSGSKHPTLTLPTTTSQENLPNGSGSGSGTMTTKNTLQPTEAAYIAGFLDGDGSIYAKLIPRPDYKDIKYQVSLAISFIQRKDKFPYLQDIYDQLGKRGNLRKDRGDGIADYTIIGSTHLSIILPDLVPYLRIKKKQANRILHIINLYPQAQKNPSKFLDLVKIVDDVQNLNKRADELKSTNYDRLLEEFLKAGKIESSP | soluble
13 | MSLKYNDNFQTILRHGVEKQVALLDADIFMENGQDDVELQMRQFRNLVNSKVDAIVVAMVNGKSAAEMMRLANEAKVPLVFVNRNPEPAKWPALTAFVGSDELESGTLQMEELARRAGYKGNVVILVGDPSNKSSVMRTEDVEKVVAKYPNMKVVQKKIGNWERSQAATIVIDWVKQGVDFSIVAANNDEMAIGAIMGLEKAGKNARDYLVGGIDGTPDGLKLMAEGKMAVSVFQDAVGQANGAVDAALSMARGETLASPVIWVPFKLITPENRQQFEEGHHHHHH | soluble
14 | MENQPKLNSSKEVIAFLAERFPHCFSAEGEARPLKIGIFQDLVERVGGEMNLSKTQLRSALRLYTSSWRYLYGVKPGATRVDLDGNPCGELEEQHVEHARKQLEEAKARVQAQRAEQQAKKREAAAAAGEKEDAPRRERKPRPVARRKEGAERKPRADKPTTKAPRAPREEKHTPVSDISVLTVGQSLKVKAGNNAMDATVLEITKDGVRVQLNSGMSLIVRAEHLVF | not soluble
15 | MGSDKIHHHHHHVDGTSKQVIKRDKMITQAISQLTPQNKLLVEEINKNVQDTILERLNMNIAGRWNDSSLSLTLMKSTIKFVPVIDSPSRLYLVNDSEKVFRIPEKFACFYGQNDNGETIYFYAIYHAENFMKDTNPKSYYQGYVEVFGKEAADKMVESSIKRTEAERWEIMSFTPQKNETKKFEYAREHSDDGTFFILTRENTYPHICFFKDKKPYYCWGANQDELSMEPLENYLKP | not soluble
16 | MQALNSISSLQTSASLFPVSLNSDVSANTSTSSKELKAVIDQLVQALTQSGQLDETSPLGKMLAKAMAADGKSANSIDDITASLDKLIHEKLGDNFGASAGIGAGGGGGGIGGAGSGSGVGGGLSSDAGAGQSDLMSQVLNGLGKAVLDDLLTPSGEGGTTFSSDDMPTLEKVAQFMDDNKAQFPTRDGGSWMNELKEDNGLDAQETAQFRSALDVIGQQLGQQQGDASGVTSGGGLGSPVSDSSLGNPAIDANTGPAANGNASVDVGQLIGQLIDRGLQSVSSGGGLGTPVDNSTQPTGGTPAANPTGNVSNQDLGQLLSGLLQRGLEATLQDAGNTGADLQSSAAQVAAQLINALLQGTNNQTNQAVALEHHHHHH | soluble
17 | MSLEPDELFDIEMRLLLHGVRQVYGHDFTDYSEASIKRRITQWFATSGYGTLSEAQAAILRNREAFDSLLRGITVNVSEMFRDPAFFRALREEIVPHLKTYPFVKIWHAGCSSGEEAYSLAILLEEEGMKGRFRMYATDINNEVLQNAREGIFPLKEMQKYTRNYQAAGGKGAFSDYYLARYEHAIMIQSLRDQIVFASHNLAVDADFGEMHLILCRNVLIYFKPTLKERVLRLFDTCLIPGGFLCLGLKESLDGRRIASRYAETVERMRIYRKSYGQEQSEGHHHHHH | not soluble
